Assay results: PMC3064261 (Nature, 2011)
Square brackets hold non-standard residues; d marks the D form. Ends that are not written are not given here. pS = N[C@@H](COP(=O)(O)O)C(=O)O

Biological target: GST-MDC1-BRCT
Assay: SPR

| Kd [nM] | Binder |
| --- | --- |
| 893 | AKLRFE[pS]QEMKG [MMSET phosphopeptide containing pS102] |
| 287 | KKATQA[pS]QEY [γH2AX peptide] |
